The record followed here is patent US11078242 (SOTIRA COVID, dated 2021).

Assay [1] concerns the target T1, angiotensin converting enzyme-2 (ACE-2), full-length ACE-2 protein (UniProt Q9BYF1 18-740).
T1 construct: also called ACE-2 enzyme; ACE-2 receptor
The assay is described as follows: FITC-labeled ACIS (FIG. 4B).

The target in assay [2] is T1, angiotensin converting enzyme-2 …. In words: fluorescence polarization; FITC-tagged ACIS peptide titrated with hACE-2. Background: In fluorescence polarisation assays a small probe gives low polarisation when free and higher when bound to something large.

Broadly, the IC50 is the point on the concentration scale where inhibition reaches its midpoint. Read a low IC50 as inhibition by little substance. The term EC50 (read off the curve) denotes the concentration at which the effect is half-maximal. Read a low EC50 (read off the curve) as greater potency. What is called Kd is the free concentration of one partner at which half of the binding sites on the other are occupied at equilibrium, for simple one-to-one binding.

T1 sequence (Q9BYF1 18-740 limits assumed): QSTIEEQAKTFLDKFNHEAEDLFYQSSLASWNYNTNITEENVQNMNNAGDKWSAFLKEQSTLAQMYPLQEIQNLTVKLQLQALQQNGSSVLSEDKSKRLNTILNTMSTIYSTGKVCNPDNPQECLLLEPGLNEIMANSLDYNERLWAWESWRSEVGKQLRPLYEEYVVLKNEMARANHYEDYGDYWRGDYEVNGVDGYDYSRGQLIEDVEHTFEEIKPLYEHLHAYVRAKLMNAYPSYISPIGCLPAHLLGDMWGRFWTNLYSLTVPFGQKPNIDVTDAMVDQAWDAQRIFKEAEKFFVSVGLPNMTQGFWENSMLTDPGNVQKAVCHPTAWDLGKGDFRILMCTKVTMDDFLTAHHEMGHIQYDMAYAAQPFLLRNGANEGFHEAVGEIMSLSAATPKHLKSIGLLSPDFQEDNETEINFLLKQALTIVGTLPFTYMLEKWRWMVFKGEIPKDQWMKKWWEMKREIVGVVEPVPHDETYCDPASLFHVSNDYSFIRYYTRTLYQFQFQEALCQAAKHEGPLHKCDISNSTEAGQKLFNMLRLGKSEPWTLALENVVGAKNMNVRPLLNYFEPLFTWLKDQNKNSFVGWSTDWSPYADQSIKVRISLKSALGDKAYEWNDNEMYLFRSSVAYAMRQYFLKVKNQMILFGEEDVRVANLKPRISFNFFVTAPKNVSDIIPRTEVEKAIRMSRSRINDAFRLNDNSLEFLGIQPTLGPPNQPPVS

B1: KEPTIDE2 (FITC tagged KEPTIDE; ACIS peptide tagged with FITC probe at C-terminal end) (peptide)
peptide: FQPTNGVGYQPYGK
modifications: FITC at the C-terminal end (on the C-terminal lysine tag according to paragraph 109)
notes: also called FITC-tagged ACIS peptide; FITC-labeled ACIS
For B1, inhibition in assay [1] was half-maximal at 24.5 nM (IC50). Besides, in assay [2], the “EC50 (read off the curve)” value is ~6 nM and the Kd amounted to 6.38 nM.
